Measurements as given in patent US20090269779.

B1: human recombinant pro-MMP-9 (protein)
chain: APRQRQSTLVLFPGDLRTNLTDRQLAEEYLYRYGYTRVAEMRGESKSLGPALLLLQKQLSLPETGELDSATLKAMRTPRCGVPDLGRFQTFEGDLKWHHHNITYWIQNYSEDLPRAVIDDAFARAFALWSAVTPLTFTRVYSRDADIVIQFGVAEHGDGYPFDGKDGLLAHAFPPGPGIQGDAHFDDDELWSLGKGVVVPTRFGNADGAACHFPFIFEGRSYSACTTDGRSDGLPWCSTTANYDTDDRFGFCPSERLYTQDGNADGKPCQFPFIFQGQSYSACTTDGRSDGYRWCATTANYDRDKLFGFCPTRADSTVMGGNSAGELCVFPFTFLGKEYSTCTSEGRGDGRLWCATTSNFDSDKKWGFCPDQGYSLFLVAAHEFGHALGLDHSSVPEALMYPMYRFTEGPPLHKDDVNGIRHLYGPRPEPEPRPPTTTTPQPTAPPTVCPTGPPTVHPSERPTAGPTGPPSAGPTGPPTAGPSTATTVPLSPVDDACNVNIFDAIAEIGNQLYLFKDGKYWRFSEGRGSRPQGPFLIADKWPALPRKLDSVFEERLSKKLFFFSGRQVWVYTGASVLGPRRLDKLGLGADVAQVTGALRSGRGKMLLFSGRRLWRFDVKAQMVDPRSASEVDRMFPGVPLDTHDVFQYREKAYFCQDRFYWRVSSRSELNQVDQVGYVTYDILQCPED
B2: human recombinant pro-MMP-2 (protein)
chain: APSPIIKFPGDVAPKTDKELAVQYLNTFYGCPKESCNLFVLKDTLKKMQKFFGLPQTGDLDQNTIETMRKPRCGNPDVANYNFFPRKPKWDKNQITYRIIGYTPDLDPETVDDAFARAFQVWSDVTPLRFSRIHDGEADIMINFGRWEHGDGYPFDGKDGLLAHAFAPGTGVGGDSHFDDDELWTLGEGQVVRVKYGNADGEYCKFPFLFNGKEYNSCTDTGRSDGFLWCSTTYNFEKDGKYGFCPHEALFTMGGNAEGQPCKFPFRFQGTSYDSCTTEGRTDGYRWCGTTEDYDRDKKYGFCPETAMSTVGGNSEGAPCVFPFTFLGNKYESCTSAGRSDGKMWCATTANYDDDRKWGFCPDQGYSLFLVAAHEFGHAMGLEHSQDPGALMAPIYTYTKNFRLSQDDIKGIQELYGASPDIDLGTGPTPTLGPVTPEICKQDIVFDGIAQIRGEIFFFKDRFIWRTVTPRDKPMGPLLVATFWPELPEKIDAVYEAPQEEKAVFFAGNEYWIYSASTLERGYPKPLTSLGLPPDVQRVDAAFNWSKNKKTYIFAGDKFWRYNEVKKKMDPGFPKLIADAWNAIPDNLDAVVDLQGGGHSYFFKGAYYLKLENQSLKSVKFGSIKSDWLGC
B3: activated human recombinant MMP-2 (protein)
chain: YNFFPRKPKWDKNQITYRIIGYTPDLDPETVDDAFARAFQVWSDVTPLRFSRIHDGEADIMINFGRWEHGDGYPFDGKDGLLAHAFAPGTGVGGDSHFDDDELWTLGEGQVVRVKYGNADGEYCKFPFLFNGKEYNSCTDTGRSDGFLWCSTTYNFEKDGKYGFCPHEALFTMGGNAEGQPCKFPFRFQGTSYDSCTTEGRTDGYRWCGTTEDYDRDKKYGFCPETAMSTVGGNSEGAPCVFPFTFLGNKYESCTSAGRSDGKMWCATTANYDDDRKWGFCPDQGYSLFLVAAHEFGHAMGLEHSQDPGALMAPIYTYTKNFRLSQDDIKGIQELYGASPDIDLGTGPTPTLGPVTPEICKQDIVFDGIAQIRGEIFFFKDRFIWRTVTPRDKPMGPLLVATFWPELPEKIDAVYEAPQEEKAVFFAGNEYWIYSASTLERGYPKPLTSLGLPPDVQRVDAAFNWSKNKKTYIFAGDKFWRYNEVKKKMDPGFPKLIADAWNAIPDNLDAVVDLQGGGHSYFFKGAYYLKLENQSLKSVKFGSIKSDWLGC
B4: activated human recombinant MMP-9 (protein)
chain: MRTPRCGVPDLGRFQTFEGDLKWHHHNITYWIQNYSEDLPRAVIDDAFARAFALWSAVTPLTFTRVYSRDADIVIQFGVAEHGDGYPFDGKDGLLAHAFPPGPGIQGDAHFDDDELWSLGKGVVVPTRFGNADGAACHFPFIFEGRSYSACTTDGRSDGLPWCSTTANYDTDDRFGFCPSERLYTQDGNADGKPCQFPFIFQGQSYSACTTDGRSDGYRWCATTANYDRDKLFGFCPTRADSTVMGGNSAGELCVFPFTFLGKEYSTCTSEGRGDGRLWCATTSNFDSDKKWGFCPDQGYSLFLVAAHEFGHALGLDHSSVPEALMYPMYRFTEGPPLHKDDVNGIRHLYGPRPEPEPRPPTTTTPQPTAPPTVCPTGPPTVHPSERPTAGPTGPPSAGPTGPPTAGPSTATTVPLSPVDDACNVNIFDAIAEIGNQLYLFKDGKYWRFSEGRGSRPQGPFLIADKWPALPRKLDSVFEERLSKKLFFFSGRQVWVYTGASVLGPRRLDKLGLGADVAQVTGALRSGRGKMLLFSGRRLWRFDVKAQMVDPRSASEVDRMFPGVPLDTHDVFQYREKAYFCQDRFYWRVSSRSELNQVDQVGYVTYDILQCPED

Experiments:
[1] = target: human wild type galectin-3, P17931
Chain of human wild type galectin-3, P17931 (P17931 whole entry): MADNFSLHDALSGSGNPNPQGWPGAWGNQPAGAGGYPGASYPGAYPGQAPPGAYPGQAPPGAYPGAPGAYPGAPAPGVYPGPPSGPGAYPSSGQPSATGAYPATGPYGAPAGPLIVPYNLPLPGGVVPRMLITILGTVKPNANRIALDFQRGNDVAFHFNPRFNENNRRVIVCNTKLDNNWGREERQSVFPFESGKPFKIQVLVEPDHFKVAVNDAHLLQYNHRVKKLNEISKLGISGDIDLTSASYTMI

[2] = target: galectin-3 A33G and H64P double mutant, P17931
Chain of galectin-3 A33G and H64P double mutant, P17931 (P17931 whole entry, looked up, stated change not applied): as the sequence (P17931 whole entry) above

[3] = target: galectin-3 A33G mutant, P17931
Chain of galectin-3 A33G mutant, P17931 (P17931 whole entry A33G): as the sequence (P17931 whole entry) above, with A33G counted along it

[4] = target: galectin-3 H64P mutant, P17931
Chain of galectin-3 H64P mutant, P17931 (P17931 whole entry, looked up, stated change not applied): as the sequence (P17931 whole entry) above

| Protein | cleavage of recombinant galectin-3 (Western blot) [1] | cleavage of recombinant galectin-3 (Western blot) [2] | cleavage of recombinant galectin-3 (Western blot) [3] | cleavage of recombinant galectin-3 (Western blot) [4] |
| --- | --- | --- | --- | --- |
| B1 | The cleavage products were not seen when galectin-3 was incubated alone or with pro-MMPs |  |  |  |
| B2 | The cleavage products were not seen when galectin-3 was incubated alone or with pro-MMPs |  |  |  |
| B3 | Wild type and A33G galectin-3 produced a polypeptide of ~22 kDa consistent with cleavage at Ala62-Tyr63 | Double mutation at A33G and H64P showed complete resistance to cleavage by both MMP-2 and MMP-9 | Wild type and A33G galectin-3 produced a polypeptide of ~22 kDa consistent with cleavage at Ala62-Tyr63 | The H64P mutant produced a ~27-kDa polypeptide upon incubation with MMP-2 indicating that it is cleaved at Gly32-Ala33 |
| B4 | Wild type and A33G galectin-3 produced a polypeptide of ~22 kDa consistent with cleavage at Ala62-Tyr63 | Double mutation at A33G and H64P showed complete resistance to cleavage by both MMP-2 and MMP-9 | Wild type and A33G galectin-3 produced a polypeptide of ~22 kDa consistent with cleavage at Ala62-Tyr63 | MMP-9 did not cleave the H64P mutant |
